Data reported in the supplement of paper PMC9112550, “Optimization of the antimicrobial peptide Bac7 by deep mutational scanning” (BMC Biology, 2022).

Test system: Escherichia coli TOP10
Test: shrunken log2 fold change of peptide-encoding DNA abundance (4.5 h post-induction vs induction); higher = less antimicrobial activity (less host growth inhibition)
Conditions: time post-induction: 4.5 h; library: site-saturation at positions 5, 18, 19, 20
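Note: peptides expressed intracellularly from a pBAD plasmid library in pooled LB shake-flask culture, induced with 0.3% L-arabinose, DNA abundance read by NGS, three biological replicates, DESeq2 with apeglm shrinkage.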

Sequence	shrunken log2 fold change
RRIRMRPPRLPRPRPRPPKKPRP	1.01
RRIRWRPPRLPRPRPRPYRHPRP	-0.0902
RRIRMRPPRLPRPRPRPQIPPRP	-0.127
RRIRNRPPRLPRPRPRPGIYPRP	-0.105
RRIRNRPPRLPRPRPRPMMVPRP	-0.194
RRIRFRPPRLPRPRPRPSGHPRP	-0.212
RRIRNRPPRLPRPRPRPHLYPRP	-0.22
RRIRHRPPRLPRPRPRPFNRPRP	0.00911
RRIRPRPPRLPRPRPRPDTQPRP	-0.371
RRIRMRPPRLPRPRPRPRVLPRP	1.12
RRIRTRPPRLPRPRPRPWTPPRP	-0.00155
RRIRVRPPRLPRPRPRPYDEPRP	-0.0163
RRIRVRPPRLPRPRPRPWTKPRP	-0.106
RRIRHRPPRLPRPRPRPRHDPRP	-0.0713
RRIRERPPRLPRPRPRPKPPPRP	0.242
RRIRTRPPRLPRPRPRPTHWPRP	0.987
RRIRDRPPRLPRPRPRPICDPRP	0.137
RRIRQRPPRLPRPRPRPERHPRP	0.181
RRIRCRPPRLPRPRPRPHNRPRP	-0.512
RRIRKRPPRLPRPRPRPQDLPRP	-0.000826
RRIRLRPPRLPRPRPRPAAVPRP	0.376
RRIRTRPPRLPRPRPRPHIRPRP	-0.271
RRIRARPPRLPRPRPRPHHNPRP	-0.483
RRIRNRPPRLPRPRPRPHIFPRP	-0.0701
RRIRFRPPRLPRPRPRPLHPPRP	-0.0197

Sequence	shrunken log2 fold change
RRIRRRPPRLPRPRPRPPGGPRP	0.348
RRIRCRPPRLPRPRPRPYTCPRP	-0.794
RRIRHRPPRLPRPRPRPDTVPRP	0.028
RRIRFRPPRLPRPRPRPGCYPRP	-0.238
RRIRCRPPRLPRPRPRPDPRPRP	0.83
RRIRSRPPRLPRPRPRPHRDPRP	-0.141
RRIRDRPPRLPRPRPRPNILPRP	-0.437
RRIRHRPPRLPRPRPRPIKPPRP	-0.236
RRIRPRPPRLPRPRPRPHGEPRP	-0.159
RRIRERPPRLPRPRPRPQCTPRP	-0.012
RRIRGRPPRLPRPRPRPSLLPRP	0.547
RRIRMRPPRLPRPRPRPQSHPRP	0.083
RRIRWRPPRLPRPRPRPTLTPRP	0.697
RRIRARPPRLPRPRPRPQQLPRP	0.176
RRIRYRPPRLPRPRPRPKWKPRP	-0.0135
RRIRERPPRLPRPRPRPRNFPRP	-0.456
RRIRQRPPRLPRPRPRPRRRPRP	0.255
RRIRSRPPRLPRPRPRPRMKPRP	-0.0423
RRIRCRPPRLPRPRPRPIAMPRP	-0.0964
RRIRSRPPRLPRPRPRPNGRPRP	-0.0415
RRIRGRPPRLPRPRPRPIARPRP	0.792
RRIRNRPPRLPRPRPRPPWEPRP	-0.0446
RRIRSRPPRLPRPRPRPHPAPRP	-0.177
RRIRFRPPRLPRPRPRPMRLPRP	0.947
RRIRCRPPRLPRPRPRPWCTPRP	0.023

Sequence	shrunken log2 fold change
RRIRFRPPRLPRPRPRPPVAPRP	0.987
RRIRQRPPRLPRPRPRPWAVPRP	0.066
RRIRYRPPRLPRPRPRPHDTPRP	-0.313
RRIRRRPPRLPRPRPRPKDAPRP	0.0371
RRIRLRPPRLPRPRPRPQTYPRP	-0.371
RRIRQRPPRLPRPRPRPHWNPRP	-0.703
RRIRSRPPRLPRPRPRPNQHPRP	-0.201
RRIRIRPPRLPRPRPRPSKDPRP	-1.02
RRIRSRPPRLPRPRPRPFICPRP	-0.163
RRIRSRPPRLPRPRPRPQNHPRP	-0.604
RRIRRRPPRLPRPRPRPGAVPRP	0.431
RRIRFRPPRLPRPRPRPPPRPRP	1.84
RRIRIRPPRLPRPRPRPMEYPRP	-0.395
RRIRMRPPRLPRPRPRPIDSPRP	0.165
RRIRPRPPRLPRPRPRPYYRPRP	-0.178
RRIRGRPPRLPRPRPRPEGRPRP	1.39
RRIRIRPPRLPRPRPRPEDHPRP	-0.185
RRIRIRPPRLPRPRPRPKEMPRP	-0.297
RRIRHRPPRLPRPRPRPSYVPRP	-1.15
RRIRGRPPRLPRPRPRPSRYPRP	-0.0843
RRIRKRPPRLPRPRPRPWKGPRP	0.0195
RRIRERPPRLPRPRPRPGADPRP	0.146
RRIRERPPRLPRPRPRPVNGPRP	-0.323
RRIRTRPPRLPRPRPRPLQWPRP	0.206
RRIRWRPPRLPRPRPRPMMQPRP	0.195

Sequence	shrunken log2 fold change
RRIRWRPPRLPRPRPRPSWQPRP	-0.0268
RRIRHRPPRLPRPRPRPLMHPRP	-0.414
RRIRSRPPRLPRPRPRPQNEPRP	-0.0107
RRIRERPPRLPRPRPRPACWPRP	0.715
RRIRERPPRLPRPRPRPNFNPRP	-0.376
RRIRVRPPRLPRPRPRPCIDPRP	-0.106
RRIRWRPPRLPRPRPRPPQLPRP	0.462
RRIRYRPPRLPRPRPRPRPEPRP	0.254
RRIRTRPPRLPRPRPRPMFCPRP	-0.628
RRIRHRPPRLPRPRPRPINTPRP	-0.249
RRIRVRPPRLPRPRPRPFSTPRP	-0.496
RRIRCRPPRLPRPRPRPYSAPRP	-0.752
RRIRARPPRLPRPRPRPKQDPRP	0.734
RRIRMRPPRLPRPRPRPYIPPRP	-1.28
RRIRMRPPRLPRPRPRPAHLPRP	0.0862
RRIRGRPPRLPRPRPRPCFFPRP	0.392
RRIRSRPPRLPRPRPRPWESPRP	0.0145
RRIRRRPPRLPRPRPRPKNHPRP	-0.0297
RRIRTRPPRLPRPRPRPHVQPRP	-0.156
RRIRSRPPRLPRPRPRPCQPPRP	0.0956
RRIRSRPPRLPRPRPRPVYLPRP	-0.519
RRIRNRPPRLPRPRPRPGTQPRP	-0.128
RRIRWRPPRLPRPRPRPDIVPRP	0.469
RRIRWRPPRLPRPRPRPRPIPRP	0.434
RRIRMRPPRLPRPRPRPFYWPRP	0.086

Sequence	shrunken log2 fold change
RRIRHRPPRLPRPRPRPPNMPRP	-0.0135
RRIRPRPPRLPRPRPRPMWNPRP	-0.216
RRIRNRPPRLPRPRPRPGFQPRP	-0.0148
RRIRPRPPRLPRPRPRPPGDPRP	0.567
RRIRFRPPRLPRPRPRPADPPRP	0.109
RRIRDRPPRLPRPRPRPDLVPRP	1.16
RRIRSRPPRLPRPRPRPAIDPRP	-0.0382
RRIRKRPPRLPRPRPRPEQAPRP	0.776
RRIRGRPPRLPRPRPRPRDSPRP	0.257
RRIRRRPPRLPRPRPRPRMPPRP	0.381
RRIRDRPPRLPRPRPRPTQPPRP	0.0164
RRIRRRPPRLPRPRPRPVGGPRP	0.984
RRIRWRPPRLPRPRPRPCDDPRP	-0.00725
RRIRPRPPRLPRPRPRPQANPRP	-0.137
RRIRVRPPRLPRPRPRPFYCPRP	-0.605
RRIRHRPPRLPRPRPRPQSIPRP	-0.0188
RRIRQRPPRLPRPRPRPEYGPRP	-0.0248
RRIRIRPPRLPRPRPRPMWHPRP	-0.176
RRIRLRPPRLPRPRPRPGKHPRP	-0.0923
RRIRTRPPRLPRPRPRPTCDPRP	0.0699
RRIRTRPPRLPRPRPRPIIAPRP	0.00466
RRIRGRPPRLPRPRPRPTIGPRP	0.589
RRIRVRPPRLPRPRPRPPCMPRP	-0.0452
RRIRSRPPRLPRPRPRPRWKPRP	0.206
RRIRPRPPRLPRPRPRPLSCPRP	-0.0219

Sequence	shrunken log2 fold change
RRIRVRPPRLPRPRPRPFQGPRP	-0.0641
RRIRSRPPRLPRPRPRPTYIPRP	-0.598
RRIRMRPPRLPRPRPRPQGWPRP	1.01
RRIRKRPPRLPRPRPRPPTVPRP	0.266
RRIRLRPPRLPRPRPRPCCCPRP	-0.117
RRIRLRPPRLPRPRPRPVKMPRP	-0.327
RRIRFRPPRLPRPRPRPMHAPRP	0.0753
RRIRMRPPRLPRPRPRPDRKPRP	0.0503
RRIRGRPPRLPRPRPRPNPKPRP	0.391
RRIRFRPPRLPRPRPRPPCDPRP	0.0212
RRIRLRPPRLPRPRPRPRCPPRP	0.188
RRIRHRPPRLPRPRPRPIMKPRP	-0.317
RRIRIRPPRLPRPRPRPRPHPRP	1.98
RRIRFRPPRLPRPRPRPEYNPRP	-0.113
RRIRHRPPRLPRPRPRPNKPPRP	-0.0637
RRIRRRPPRLPRPRPRPYWQPRP	-0.0961
RRIRMRPPRLPRPRPRPVYAPRP	0.243
RRIRWRPPRLPRPRPRPNTRPRP	0.15
RRIRYRPPRLPRPRPRPKEIPRP	-0.0434
RRIRWRPPRLPRPRPRPDIHPRP	-0.196
RRIRIRPPRLPRPRPRPDFRPRP	-0.371
RRIRGRPPRLPRPRPRPTNDPRP	0.564
RRIRTRPPRLPRPRPRPAHNPRP	-0.215
RRIRSRPPRLPRPRPRPFCWPRP	0.651
RRIRPRPPRLPRPRPRPSVRPRP	0.129
